Measured values as given in patent US20110301073, “Novel DNA-binding proteins and uses thereof” (Sangamo BioSciences, Inc., published 2011).

What was measured:
TALE13 N+137 C+95 = TALE13 N+137 C+95 (Xanthomonas axonopodis); assay: DNA-binding ELISA; replicates; settings: tags: N-terminal Met
Description: (§1) When clones #3, 4 and 5 were subjected to the SELEX procedure, no consensus sequences were detected. Thus it appears that the TALE binding domains require N- and C-terminal cap sequences comprised in from clone #2 to yield a consensus sequence in this assay. Additional truncations were made and tested for activity using a DNA binding ELISA assay essentially as described in Bartsevich et al., Stem Cells. 2003; 21:632-7. The truncations are presented below in Table 7, which also includes the ELISA results. The starting N-terminus in these truncations is at amino acid 152, identical to the N-terminus in the #1, #2, and #3 truncations discussed above. In this fine-scale truncation series, the end points are as follows.

TALE13 N+91 C+52 = TALE13 N+91 C+52 (Xanthomonas axonopodis); assay: DNA-binding ELISA; background level
Description: as §1

TALE13 N+100 C+52 = TALE13 N+100 C+52 (Xanthomonas axonopodis); assay: DNA-binding ELISA; background level
Description: as §1

TALE13 N+111 C+52 = TALE13 N+111 C+52 (Xanthomonas axonopodis); assay: DNA-binding ELISA; background level
Description: as §1

TALE13 N+91 C+115 = TALE13 N+91 C+115 (Xanthomonas axonopodis); assay: DNA-binding ELISA; background level
Description: as §1

TALE13 N+121 C+52 = TALE13 N+121 C+52 (Xanthomonas axonopodis); assay: DNA-binding ELISA; background level
Description: as §1

TALE13 N+100 C+115 = TALE13 N+100 C+115 (Xanthomonas axonopodis); assay: DNA-binding ELISA; background level
Description: as §1

TALE13 +63 FokI = target: T1, TALE13 +63 FokI (Xanthomonas axonopodis (engineered)); assay: cleavage_in_vitro; two inverted sites, 16 bp gap; NEB Buffer 2, 37 C; settings: tags: FLAG, NLS, chain copies: 2
T1 chain: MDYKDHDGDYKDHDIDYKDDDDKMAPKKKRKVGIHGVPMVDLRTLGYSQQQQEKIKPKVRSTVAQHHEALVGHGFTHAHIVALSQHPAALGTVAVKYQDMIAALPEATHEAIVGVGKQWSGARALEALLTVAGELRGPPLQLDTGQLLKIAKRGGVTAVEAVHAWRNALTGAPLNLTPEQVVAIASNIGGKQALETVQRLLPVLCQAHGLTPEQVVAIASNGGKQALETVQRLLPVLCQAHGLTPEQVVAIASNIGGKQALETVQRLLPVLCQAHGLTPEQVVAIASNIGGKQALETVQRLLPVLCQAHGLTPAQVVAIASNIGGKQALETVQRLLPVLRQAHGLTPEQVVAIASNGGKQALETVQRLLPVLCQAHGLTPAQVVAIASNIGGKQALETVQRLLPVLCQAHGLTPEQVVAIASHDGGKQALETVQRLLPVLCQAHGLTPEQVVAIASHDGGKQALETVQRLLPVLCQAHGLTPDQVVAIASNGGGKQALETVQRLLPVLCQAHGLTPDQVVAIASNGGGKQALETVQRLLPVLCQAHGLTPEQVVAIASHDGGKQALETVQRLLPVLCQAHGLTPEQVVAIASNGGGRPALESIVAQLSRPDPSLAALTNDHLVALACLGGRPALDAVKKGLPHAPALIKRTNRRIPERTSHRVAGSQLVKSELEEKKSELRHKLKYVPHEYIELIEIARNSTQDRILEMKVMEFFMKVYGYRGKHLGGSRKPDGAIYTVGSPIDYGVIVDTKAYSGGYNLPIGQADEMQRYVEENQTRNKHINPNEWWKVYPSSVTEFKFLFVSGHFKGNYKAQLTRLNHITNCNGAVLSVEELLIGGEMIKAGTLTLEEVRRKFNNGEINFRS
Experimental: TALE domain fusions were also constructed using Fold cleavage half domains. For these examples, wild type FokI half cleavage domains were used so that for nuclease activity, a homodimer must be formed from two of the fusions. For these fusions, the TALE13 DNA binding domain was fused to each FokI half domain by cloning the TALE DNA binding domain into a plasmid adjacent to FokI-specifying sequence. In addition, various linkers were tested for use between the DNA binding domain and the nuclease domain. Linkers L2 and L8 were used which are as follows: L2=GS (SEQ ID NO:71) and L8=[…] (SEQ ID NO:72). The target sites were cloned into a TOPO2.1 target vector (Invitrogen) with varying gap spacings between each target binding site such that the two were separated from each other by 2 to 22 bp. PCR amplification of an approximately 1 kb region of the target vector was done to generate the target DNAs. The TALE DNA binding domains were also truncated as described previously, and are described using the same nomenclature as described above in Examples 2 and 6. The TALE domain nuclease fusion clones were expressed in the TNT Rabbit Reticulocyte Lysate system by adding 5 μL of water containing 250 nanograms of the nuclease fusion clone plasmid to 20 μL of lysate and incubating at 30° C. for 90 minutes.
The lysate was then used to cleave the target DNAs as follows: 2.5 μL of lysate were added to a 50 μL reaction containing 50 nanograms of PCR-amplified target DNA and a final Buffer 2 (New England Biolabs) concentration of 1×. The cleavage reaction was for one hour at 37° C., followed by a 20 minute heat inactivation stage at 65° C. The reaction was then centrifuged at high speed to separate the target DNA from the lysate, causing the lysate to condense into a pellet in the reaction well. The DNA-containing supernatant was pipetted off and run on an ethidium bromide-stained agarose gel (Invitrogen) to separate intact target DNA from cleaved target DNA. The agarose gel was then analyzed using AlphaEaseFC (Alpha Innotech) software to measure the amount of target DNA present in the large uncleaved DNA band and the two smaller DNA bands resulting from a single cleavage event of the target DNA. The percentage of cleaved DNA out of the total amount of target DNA loaded into the gel represents the percent cleavage in each reaction.

B1: TALE13 target (dsDNA)
DNA 1: TATAAATACCTTCT
DNA 2: AGAAGGTATTTATA
TALE13 N+137 C+95
  binding result: binds
TALE13 N+91 C+52
  binding result: no binding
TALE13 N+100 C+52
  binding result: no binding
TALE13 N+111 C+52
  binding result: no binding
TALE13 N+91 C+115
  binding result: no binding
TALE13 N+121 C+52
  binding result: no binding
TALE13 N+100 C+115
  binding result: no binding
TALE13 +63 FokI
  activity: 70 % cleavage
